Experimental data: PMC2133087 (The Journal of Cell Biology, 1998)

Biological target: actin filament (F-actin) polymerized from G-actin purified from rabbit skeletal muscle (rabbit, UniProt P68135 1-377)
Experiment: co-sedimentation

Row | stoichiometry N | Binder
1 | ~10 actin molecules per His6-s-nexilin molecule | full-length His6-s-nexilin (natural protein) MNDVSQKAEIKDMLASDEEEEPSKVEKAYVPKLTGTVKGKFDEMEKHRQEEQRKRTEEERKRRIEQDLLEKRKMQRELAKRAEQIEDINNTGTESASEEGDDSLLITVVPAKSYRAAANRKDPEDLDREHRNGRVSQEEEKTRHEEECRALKEAKCLSLVMDDETEAKKESRFPGKLKSTFEELERQRQENRKKQAEEEARRRLEEERRAFEEARRNMVNEEDESQDTETVFKEYRPGKLRLSFEEIERQRREEEKRKAEEEARRRMEEEKKAFAEARRSMVLDDDSPEIYKAVSQESLTPGKLEINFEQLLRQKMEEERRRTEEERRQKLEMEKQEFEQLRQEMGKEEEENESFGLSREYEELIKLKRSGSIQAKNLKSKFEKIGQLSEKEVQKKIEEERAKRRAIDLEIKEREAENFHEDDDVDVKPAKKSESPFTHKVNMKARFEQMAKARQEEEQRRIEEQKLLRMQFEQKEIDAALQKKREDDEEEEGSIVNGSTTEDEEQTRSGAPWFKKPLRNTSVVDSEPVRFTVKVTGEPKPEVTWWFEGELLQDGEDYQYIERGETYCLYLPETFPEDGGEYMCKAVNSKGSAASTCILTIEMDDY
2 | ~9 actin molecules per His6-b-nexilin molecule | full-length His6-b-nexilin (natural protein) MNDVSQKAEILLSSSKPVPKSYVPKLGKGDVKDKFEAMQRAREERNQRRSRDEKQRRKEQYIREREWNRRKQEIKDMLASDEEEEPSKVEKAYVPKLTGTVKGKFDEMEKHRQEEQRKRTEEERKRRIEQDLLEKRKMQRELAKRAEQEGDDSLLITVVPAKSYRAAANRKDPEDLDREHRNGRVSQEEEKTRHEEECRALKEAKCLSLVMDDETEAKKESRFPGKLKSTFEELERQRQENRKKQAEEEARRRLEEERRAFEEARRNMVNEEDESQDTETVFKEYRPGKLRLSFEEIERQRREEEKRKAEEEARRRMEEEKKAFAEARRSMVLDDDSPEIYKAVSQESLTPGKLEINFEQLLRQKMEEERRRTEEERRQKLEMEKQEFEQLRQEMGKEEEENESFGLSREYEELIKLKRSGSIQAKNLKSKFEKIGQLSEKEVQKKIEEERAKRRAIDLEIKEREAENFHEDDDVDVKPAKKSESPFTHKVNMKARFEQMAKARQEEEQRRIEEQKLLRMQFEQKEIDAALQKKREDDEEEEGSIVNGSTTEDEEQTRSGAPWFKKPLRNTSVVDSEPVRFTVKVTGEPKPEVTWWFEGELLQDGEDYQYIERGETYCLYLPETFPEDGGEYMCKAVNSKGSAASTCILTIEMDDY
